Assay results published in paper PMC7083227 (Immunity, 2020).

Biological target: the molecule itself
Assay: non-reducing and reducing SDS-PAGE after surface biotinylation and anti-HA immunoprecipitation; cells surface biotinylated, lysed in 1% NP40 ± 10 mM iodoacetamide, HA-tagged protein precipitated with anti-HA resin, blot with streptavidin-HRP; with or without BTN3A1, with or without Zol

B1: HA-tagged BTN2A1 (surface biotinylation experiment) (natural protein, human, UniProt Q7KYR7 29-527, looked up)
chain: QFIVVGPTDPILATVGENTTLRCHLSPEKNAEDMEVRWFRSQFSPAVFVYKGGRERTEEQMEEYRGRTTFVSKDISRGSVALVIHNITAQENGTYRCYFQEGRSYDEAILHLVVAGLGSKPLISMRGHEDGGIRLECISRGWYPKPLTVWRDPYGGVAPALKEVSMPDADGLFMVTTAVIIRDKSVRNMSCSINNTLLGQKKESVIFIPESFMPSVSPCAVALPIIVVILMIPIAVCIYWINKLQKEKKILSGEKEFERETREIALKELEKERVQKEEELQVKEKLQEELRWRRTFLHAVDVVLDPDTAHPDLFLSEDRRSVRRCPFRHLGESVPDNPERFDSQPCVLGRESFASGKHYWEVEVENVIEWTVGVCRDSVERKGEVLLIPQNGFWTLEMHKGQYRAVSSPDRILPLKESLCRVGVFLDYEAGDVSFYNMRDRSHIYTCPRSAFSVPVRPFFRLGCEDSPIFICPALTGANGVTVPEEGLTLHRVGTHQSL
modifications: surface lysines biotinylated with EZ-Link Sulfo NHS-LC-biotin
notes: Butyrophilin-2A1 (BTN2A1), human; also called CHO-cell expressed BTN2A1; cell surface BTN2A1
  stoichiometry N: 2
